The labels stand for the following.
B1: BBSome complex member BBS4 (Homo sapiens), Q96RK4 (parent)
chain: MAEERVATRTQFPVSTESQKPRQKKAPEFPILEKQNWLIHLHYIRKDYEACKAVIKEQLQETQGLCEYAIYVQALIFRLEGNIQESLELFQTCAVLSPQSADNLKQVARSLFLLGKHKAAIEVYNEAAKLNQKDWEISHNLGVCYIYLKQFNKAQDQLHNALNLNRHDLTYIMLGKIHLLEGDLDKAIEVYKKAVEFSPENTELLTTLGLLYLQLGIYQKAFEHLGNALTYDPTNYKAILAAGSMMQTHGDFDVALTKYRVVACAVPESPPLWNNIGMCFFGKKKYVAAISCLKRANYLAPFDWKILYNLGLVHLTMQQYASAFHFLSAAINFQPKMGELYMLLAVALTNLEDIENAKRAYAEAVHLDKCNPLVNLNYAVLLYNQGEKKNALAQYQEMEKKVSLLKDNSSLEFDSEMVEMAQKLGAALQVGEALVWTKPVKDPKSKHQTTSTSKPASFQQPLGSNQALGQAMSSAAAYRTLPSGAGGTSQFTKPPSLPLEPEPAVESSPTETSEQIREK
partner: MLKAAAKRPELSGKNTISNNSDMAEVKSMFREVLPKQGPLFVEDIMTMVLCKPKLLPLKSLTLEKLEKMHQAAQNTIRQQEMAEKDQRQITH

The variants in one experiment derive from B1. The following applies: with bbip1_human BBIP1, A8MTZ0.
Regarding A288K, the “effect of a mutation on the interaction” value is “with no effect”.
In the case of M278T, the “effect of a mutation on the interaction” value was “disrupting interaction strength”.
M278E: the “effect of a mutation on the interaction” value is “with no effect”.
Same read-out and setting: as for M278L, the entry is “disrupting interaction strength”; as for M278K, “with no effect”.
Consider M278A, for which the “effect of a mutation on the interaction” value is given as “with no effect”.
Take E268A: the “effect of a mutation on the interaction” value is “with no effect”.
For the variant E268K, the “effect of a mutation on the interaction” value was “with no effect”.
On to A300E, for which the “effect of a mutation on the interaction” value is given as “with no effect”.
As for A300K, the “effect of a mutation on the interaction” value is listed as “with no effect”.
On to F280K, for which the “effect of a mutation on the interaction” value is listed as “with no effect”.
As for F280E, the “effect of a mutation on the interaction” value is listed as “with no effect”.
As for F280A, the “effect of a mutation on the interaction” value is given as “with no effect”.
Turning to S269A, the “effect of a mutation on the interaction” value was “with no effect”.
As for S269E, the “effect of a mutation on the interaction” value is “with no effect”.
As to S269K, the “effect of a mutation on the interaction” value was “with no effect”.
With P270K, the “effect of a mutation on the interaction” value is recorded as “with no effect”.
For P270A, the “effect of a mutation on the interaction” value was “with no effect”.
Same read-out and setting: then P270E, with “with no effect”.
As for C279A, the “effect of a mutation on the interaction” value was “with no effect”.
On to C279K, for which the “effect of a mutation on the interaction” value is “with no effect”.
As for C279E, the “effect of a mutation on the interaction” value is on record as “with no effect”.
I276K: the “effect of a mutation on the interaction” value is “with no effect”.
As for I276E, the “effect of a mutation on the interaction” value is “with no effect”.
The same measure, in the same setting: as for I276A, the entry is “with no effect”; as for Y286E, “with no effect”.
On to Y286K, for which the “effect of a mutation on the interaction” value was “with no effect”.
For the variant Y286A, the “effect of a mutation on the interaction” value is “with no effect”.
Still for that read-out and setting: as for G277E, the entry is “with no effect”.
As for G277A, the “effect of a mutation on the interaction” value is on record as “with no effect”.
Turning to G277K, the “effect of a mutation on the interaction” value is “with no effect”.
For the variant L293A, the “effect of a mutation on the interaction” value is “with no effect”.
In the case of L293K, the “effect of a mutation on the interaction” value is recorded as “with no effect”.
The same measure, in the same setting: then L293E, with “with no effect”; and L299A, with “with no effect”; and L299K, with “with no effect”.
The same measure, in the same setting: as for L299E, the entry is “with no effect”.
In the case of L272A, the “effect of a mutation on the interaction” value was “with no effect”.
Still for that read-out and setting: then L272E, with “with no effect”.
For L272K, the “effect of a mutation on the interaction” value was “with no effect”.
With A289K, the “effect of a mutation on the interaction” value is recorded as “with no effect”.
Still for that read-out and setting: as for A289E, the entry is “with no effect”; as for A289V, “disrupting interaction strength”.
With Y298E, the “effect of a mutation on the interaction” value is given as “with no effect”.
The same measure, in the same setting: then Y298K, with “with no effect”.
For the variant Y298A, the “effect of a mutation on the interaction” value is “with no effect”.
Same read-out and setting: as for K285A, the entry is “with no effect”.
Same read-out and setting: then K285E, with “with no effect”; and P271A, with “with no effect”; and P271E, with “with no effect”.
Consider P271K, for which the “effect of a mutation on the interaction” value is listed as “with no effect”.
Regarding F281A, the “effect of a mutation on the interaction” value was “with no effect”.
With F281K, the “effect of a mutation on the interaction” value was “with no effect”.
As for F281S, the “effect of a mutation on the interaction” value is reported as “disrupting interaction strength”.
As for F281E, the “effect of a mutation on the interaction” value is reported as “with no effect”.
Consider P301L, for which the “effect of a mutation on the interaction” value is on record as “disrupting interaction strength”.
For the variant P301S, the “effect of a mutation on the interaction” value is “disrupting interaction strength”.
For P301E, the “effect of a mutation on the interaction” value was “with no effect”.
As to P301A, the “effect of a mutation on the interaction” value is given as “with no effect”.
As for P301K, the “effect of a mutation on the interaction” value is on record as “with no effect”.
As to K283A, the “effect of a mutation on the interaction” value is “with no effect”.
For the variant K283E, the “effect of a mutation on the interaction” value is on record as “with no effect”.
In the case of N274A, the “effect of a mutation on the interaction” value is listed as “with no effect”.
Still for that read-out and setting: then N274K, with “with no effect”; and N274E, with “with no effect”; and A296E, with “with no effect”.
Same read-out and setting: then A296V, with “disrupting interaction strength”; and A296K, with “with no effect”.
In the case of N275E, the “effect of a mutation on the interaction” value is reported as “with no effect”.
On to N275K, for which the “effect of a mutation on the interaction” value was “with no effect”.
Consider N275A, for which the “effect of a mutation on the interaction” value is “with no effect”.
Take V287E: the “effect of a mutation on the interaction” value is given as “with no effect”.
In the case of V287A, the “effect of a mutation on the interaction” value is recorded as “with no effect”.
With V287K, the “effect of a mutation on the interaction” value is given as “with no effect”.
R295K: the “effect of a mutation on the interaction” value is listed as “with no effect”.
As to R295E, the “effect of a mutation on the interaction” value was “with no effect”.
For R295A, the “effect of a mutation on the interaction” value is reported as “with no effect”.
On the same count and under the same terms, then I290A, with “with no effect”; and I290K, with “with no effect”; and I290E, with “with no effect”.
Take K294E: the “effect of a mutation on the interaction” value is “with no effect”.
Regarding K294A, the “effect of a mutation on the interaction” value was “with no effect”.
Take K284A: the “effect of a mutation on the interaction” value is “with no effect”.
Same read-out and setting: then K284E, with “with no effect”; and G282K, with “with no effect”; and G282E, with “with no effect”.
On to G282A, for which the “effect of a mutation on the interaction” value was “with no effect”.

The variants in another experiment derive from B1. The settings on record: with bbip1_human BBIP1, A8MTZ0. The source holds these as a separate data set.
In the case of N377Y, the “effect of a mutation on the interaction” value is “disrupting interaction strength”.
Same read-out and setting: then L327P, with “disrupting interaction strength”.
